Our source for the efficiency of crosslinking values is PMC3428624.

This assay concerns the target histone H3 K115C (UniProt P84233). The assay is described as follows: cross-linking.

Regarding “histone H3 K115C (from UniProt P84233 2-136) (natural protein)”, the efficiency of crosslinking at H3 K115C (H3-H3’) turned out to be 80%.
